Laboratory results: patent US20180085432A1, “STING (Stimulator of Interferon Genes), A Regulator of Innate Immune Responses” (University of Miami, priority 2008, published 2018)

T1: STING (Mus musculus, UniProt Q3TBT3)
T1 construct: expressed in transfected cells
T1 sequence (Q3TBT3 1-378): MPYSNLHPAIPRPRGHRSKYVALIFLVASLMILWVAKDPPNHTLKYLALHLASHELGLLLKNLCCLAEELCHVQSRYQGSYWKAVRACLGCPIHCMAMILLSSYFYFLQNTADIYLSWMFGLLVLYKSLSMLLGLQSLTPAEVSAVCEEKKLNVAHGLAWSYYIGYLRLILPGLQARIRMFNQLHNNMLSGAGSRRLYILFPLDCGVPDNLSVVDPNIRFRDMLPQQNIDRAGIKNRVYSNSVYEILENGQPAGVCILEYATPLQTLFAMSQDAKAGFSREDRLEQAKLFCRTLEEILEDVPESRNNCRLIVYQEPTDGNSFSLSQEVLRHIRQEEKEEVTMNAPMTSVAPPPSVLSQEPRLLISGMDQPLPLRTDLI


What was measured:
[1] = biological target: STING (Homo sapiens, UniProt Q86WV6); assay: STING cell based assay, drug library screen
[2] = biological target: T1, STING; assay: STING trafficking in MEFs stably transfected with HA-STING after ISD stimulation; assay type: cell-based, murine; conditions: Brefeldin A (0.1 ng/ml) or chloroquine (0.1 mM) for 1 hour prior to ISD stimulation
Protocol: FIG. 32B: MEFs stably transfected with HA-STING were treated with Brefeldin A (0.1 ng/ml) or chloroquine (0.1 mM) for 1 hour prior to ISD stimulation (3 hours 1 ng/ml in Lipofectamine 2000). Green=anti-HA and red=anti-calreticulin. FIG. 32C: Wild type MEFs were treated with Brefeldin A as above and IFNβ mRNA measured. FIGS. 32D, 32E: 293T cells were treated with various concentrations of Brefeldin A as above were co-transfected with STING, constitutively active IRF3 or IRF7 and IFN-luciferase reporter plasmid. Luciferase was measured after 24 hours. FIGS. 32F, 32G: Macrophages treated with various chloroquine amounts for one hour were treated with ISD (1 ng/ml), poly (dAT-dAT) [1 ng/ml] or LPS (1ng/ml) and after 16 hours IFNβ or IL6 measured by ELISA. FIG. 32H: STING^−/− MEFS were transfected with HA-STING or HA-STINGΔSP (that lacks the first 36 amino acids representing a potential signal peptide motif) for 24 hours prior to treatment with ISD (1 ng/ml). After 3 hours STING localization was measured using immunofluorescence and an anti-HA antibody (green) or anti calreticulin antibody (red). FIG. 32I: 293T cells were co-transfected with HA-STING or HA-STINGΔSP and an IFN-Luciferase plasmid and after 24 hours luciferase was measured. […] Asterisks indicate significant difference (P<0.05) as determined by Student's t-test. Error bars indicate s.d. […]

[3] = biological target: A366 peptide of STING
[4] = biological target: S366 peptide of STING
[5] = system: A366 peptide; assay: screening of kinases for S366 of STING (33P-ATP); assay type: biochemical; conditions: kinase mixed with peptide and 33P-ATP
Protocol: (§1) The activity of 217 protein kinase targets were evaluated against 2 peptides (A366 and S366) as substrate. Protein kinases were mixed with each peptide and ^33P-ATP and then activity (CPM) was measured. The below kinases were identified as phosphorylating S366 in STING. Identification of kinases which target this serine opens up novel avenues for drug discovery. Drugs that target this association may inhibit STING activity and be used for therapeutic purposes to inhibit STING activity. STING over activity may lead to inflammatory diseases which can exacerbate cancer.

[6] = system: S366 peptide; assay: screening of kinases for S366 of STING (33P-ATP); assay type: biochemical; conditions: for Fold inducton: S366 peptide vs A366 peptide; for Activity, S366 peptide: kinase mixed with peptide and 33P-ATP
Protocol: as §1

Sequence of STING (Homo sapiens, UniProt Q86WV6) (Q86WV6 whole entry): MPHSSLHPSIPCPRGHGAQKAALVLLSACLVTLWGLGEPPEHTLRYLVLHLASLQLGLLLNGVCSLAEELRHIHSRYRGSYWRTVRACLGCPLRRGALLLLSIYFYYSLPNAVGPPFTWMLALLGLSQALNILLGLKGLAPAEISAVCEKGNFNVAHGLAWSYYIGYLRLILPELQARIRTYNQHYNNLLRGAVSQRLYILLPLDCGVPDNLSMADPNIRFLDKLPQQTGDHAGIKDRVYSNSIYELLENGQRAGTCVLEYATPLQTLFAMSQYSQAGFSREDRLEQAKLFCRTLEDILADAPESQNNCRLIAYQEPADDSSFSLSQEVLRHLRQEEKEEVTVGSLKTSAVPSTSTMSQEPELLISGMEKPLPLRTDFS

Row | Molecule | Activators of STING [1] | STING trafficking [2] | Activity (cpm), kinase mixed with peptide and 33P-ATP [3] | Activity (cpm), kinase mixed with peptide and 33P-ATP [4] | Activity, A366 peptide [5] | Fold inducton [6] | Activity, S366 peptide [6]
1 | C[C@@H]1O[C@@H](O[C@H]2C[C@@H](O)[C@]3(CO)[C@H]4[C@H](O)C[C@]5(C)[C@@H]([C@@H]6COC(=O)C6)CC[C@]5(O)[C@@H]4CC[C@]3(O)C2)[C@H](O)[C@H](O)[C@H]1O [dihydroouabain] | Activators of STING |  |  |  |  |  | 
2 | CCN(CC)CCCC(C)Nc1ccnc2cc(Cl)ccc12 (centres unmarked) [chloroquine] |  | but not chloroquine blocked STING trafficking |  |  |  |  | 
3 | C[C@H]1CCC/C=C/[C@@H]2C[C@H](O)C[C@H]2[C@H](O)/C=C/C(=O)O1 [Brefeldin A] |  | blocked STING trafficking |  |  |  |  | 
4 | O=C(O)/C=C\C(=O)O.O=C1/C(=C/c2ccccc2)C[C@@]2(O)[C@H]3Cc4ccc(O)c5c4[C@@]2(CCN3CC2CC2)[C@H]1O5 [BNTX maleate salt hydrate] | Activators of STING |  |  |  |  |  | 
5 | RIPK5 (enzyme) SICSQFRTRLNSSHEAFAASLRQLEAGHSGRLEKTEDLWLRVRKDHAPRLARLSLESCSLQDVLLHRKPKLGQELGRGQYGVVYLCDNWGGHFPCALKSVVPPDEKHWNDLALEFHYMRSLPKHERLVDLHGSVIDYNYGGGSSIAVLLIMERLHRDLYTGLKAGLTLETRLQIALDVVEGIRFLHSQGLVHRDIKLKNVLLDKQNRAKITDLGFCKPEAMMSGSIVGTPIHMAPELFTGKYDNSVDVYAFGILFWYICSGSVKLPEAFERCASKDHLWNNVRRGARPERLPVFDEECWQLMEACWDGDPLKRPLLGIVQPMLQGIMNRLCKSNSEQPNRGLDDST |  |  | 1330 cpm | 16000 cpm | 1327 cpm | 12.03 | 15966 cpm
6 | ULK1 (enzyme) MEPGRGGTETVGKFEFSRKDLIGHGAFAVVFKGRHREKHDLEVAVKCINKKNLAKSQTLLGKEIKILKELKHENIVALYDFQEMANSVYLVMEYCNGGDLADYLHAMRTLSEDTIRLFLQQIAGAMRLLHSKGIIHRDLKPQNILLSNPAGRRANPNSIRVKIADFGFARYLQSNMMAATLCGSPMYMAPEVIMSQHYDGKADLWSIGTIVYQCLTGKAPFQASSPQDLRLFYEKNKTLVPTIPRETSAPLRQLLLALLQRNHKDRMDFDEFFHHPFLDASPSVRKSPPVPVPSYPSSGSGSSSSSSSTSHLASPPSLGEMQQLQKTLASPADTAGFLHSSRDSGGSKDSSCDTDDFVMVPAQFPGDLVAEAPSAKPPPDSLMCSGSSLVASAGLESHGRTPSPSPPCSSSPSPSGRAGPFSSSRCGASVPIPVPTQVQNYQRIERNLQSPTQFQTPRSSAIRRSGSTSPLGFARASPSPPAHAEHGGVLARKMSLGGGRPYTPSPQVGTIPERPGWSGTPSPQGAEMRGGRSPRPGSSAPEHSPRTSGLGCRLHSAPNLSDLHVVRPKLPKPPTDPLGAVFSPPQASPPQPSHGLQSCRNLRGSPKLPDFLQRNPLPPILGSPTKAVPSFDFPKTPSSQNLLALLARQ |  |  | 12200 cpm | 209000 cpm | 12221 cpm | 17.10 | 209014 cpm
7 | TBK1 (protein kinase panel) (enzyme) MQSTSNHLWLLSDILGQGATANVFRGRHKKTGDLFAIKVFNNISFLRPVDVQMREFEVLKKLNHKNIVKLFAIEEETTTRHKVLIMEFCPCGSLYTVLEEPSNAYGLPESEFLIVLRDVVGGMNHLRENGIVHRDIKPGNIMRVIGEDGQSVYKLTDFGAARELEDDEQFVSLYGTEEYLHPDMYERAVLRKDHQKKYGATVDLWSIGVTFYHAATGSLPFRPFEGPRRNKEVMYKIITGKPSGAISGVQKAENGPIDWSGDMPVSCSLSRGLQVLLTPVLANILEADQEKCWGFDQFFAETSDILHRMVIHVFSLQQMTAHKIYIHSYNTATIFHELVYKQTKIISSNQELIYEGRRLVLEPGRLAQHFPKTTEENPIFVVSREPLNTIGLIYEKISLPKVHPRYDLDGDASMAKAITGVVCYACRIASTLLLYQELMRKGIRWLIELIKDDYNETVHKKTEVVITLDFCIRNIEKTVKVYEKLMKINLEAAELGEISDIHTKLLRLSSSQGTIETSLQDIDSRLSPGGSLADAWAHQEGTHPKDRNVEKLQVLLNCMTEIYYQFKKDKAERRLAYNEEQIHKFDKQKLYYHATKAMTHFTDECVKKYEAFLNKSEEWIRKMLHLRKQLLSLTNQCFDIEEEVSKYQEYTNELQETLPQKMFTASSGIKHTMTPIYPSSNTLVEMTLGMKKLKEEMEGVVKELAENNHILERFGSLTMDGGLRNVDCL |  |  | 6600 cpm | 16700 cpm | 6603 cpm | 2.52 | 16651 cpm
8 | ULK2 (enzyme) MEVVGDFEYSKRDLVGHGAFAVVFRGRHRQKTDWEVAIKSINKKNLSKSQILLGKEIKILKELQHENIVALYDVQELPNSVFLVMEYCNGGDLADYLQAKGTLSEDTIRVFLHQIAAAMRILHSKGIIHRDLKPQNILLSYANRRKSSVSGIRIKIADFGFARYLHSNMMAATLCGSPMYMAPEVIMSQHYDAKADLWSIGTVIYQCLVGKPPFQANSPQDLRMFYEKNRSLMPSIPRETSPYLANLLLGLLQRNQKDRMDFEAFFSHPFLEQGPVKKSCPVPVPMYSGSVSGSSCGSSPSCRFASPPSLPDMQHIQEENLSSPPLGPPNYLQVSKDSASTSSKNSSCDTDDFVLVPHNISSDHSCDMPVGTAGRRASNEFLVCGGQCQPTVSPHSETAPIPVPTQIRNYQRIEQNLTSTASSGTNVHGSPRSAVVRRSNTSPMGFLRPGSCSPVPADTAQTVGRRLSTGSSRPYSPSPLVGTIPEQFSQCCCGHPQGHDSRSRNSSGSPVPQAQSPQSLLSGARLQSAPTLTDIYQNKQKLRKQHSDPVCPSHTGAGYSYSPQPSRPGSLGTSPTKHLGSSPRSSDWFFKTPLPTIIGSPTKTTAPFKIPKTQASSNLLALVTRHGPAEE |  |  | 7380 cpm | 15600 cpm | 7377 cpm | 21.13 | 15580 cpm
9 | NEK9 (enzyme) MSVLGEYERHCDSINSDFGSESGGCGDSSPGPSASQGPRAGGGAAEQEELHYIPIRVLGRGAFGEATLYRRTEDDSLVVWKEVDLTRLSEKERRDALNEIVILALLQHDNIIAYYNHFMDNTTLLIELEYCNGGNLYDKILRQKDKLFEEEMVVWYLFQIVSAVSCIHKAGILHRDIKTLNIFLTKANLIKLGDYGLAKKLNSEYSMAETLVGTPYYMSPELCQGVKYNFKSDIWAVGCVIFELLTLKRTFDATNPLNLCVKIVQGIRAMEVDSSQYSLELIQMVHSCLDQDPEQRPTADELLDRPLLRKRRREMEEKVTLLNAPTKRPRSSTVTEAPIAVVTSRTSEVYVWGGGKSTPQKLDVIKSGCSARQVCAGNTHFAVVTVEKELYTWVNMQGGTKLHGQLGHGDKASYRQPKHVEKLQGKAIRQVSCGDDFTVCVTDEGQLYAFGSDYYGCMGVDKVAGPEVLEPMQLNFFLSNPVEQVSCGDNHVVVLTRNKEVYSWGCGEYGRLGLDSEEDYYTPQKVDVPKALIIVAVQCGCDGTFLLTQSGKVLACGLNEFNKLGLNQCMSGIINHEAYHEVPYTTSFTLAKQLSFYKIRTIAPGKTHTAAIDERGRLLTFGCNKCGQLGVGNYKKRLGINLLGGPLGGKQVIRVSCGDEFTIAATDDNHIFAWGNGGNGRLAMTPTERPHGSDICTSWPRPIFGSLHHVPDLSCRGWHTILIVEKVLNSKTIRSNSSGLSIGTVFQSSSPGGGGGGGGGEEEDSQQESETPDPSGGFRGTMEADRGMEGLISPTEAMGNSNGASSSCPGWLRKELENAEFIPMPDSPSPLSAAFSESEKDTLPYEELQGLKVASEAPLEHKPQVEASSPRLNPAVTCAGKGTPLTPPACACSSLQVEVERLQGLVLKCLAEQQKLQQENLQIFTQLQKLNKKLEGGQQVGMHSKGTQTAKEEMEMDPKPDLDSDSWCLLGTDSCRPSL |  |  | 6980 cpm | 26300 cpm | 6977 cpm | 3.77 | 26284 cpm
